Measured values published in patent US20210054355A1 (NEW YORK UNIVERSITY, published 2021).
Substitutions are numbered along the chain they refer to. In names and notes the source's numbering stands.

Key:
Assay in all cases: SEC-MALS, 1:1:1 ternary complex with FGF23 and αKlotho^ecto
[1] = target: T1, FGFR1c^ecto/ΔSLBS (FGFR1c^ecto carrying I203E) (human, UniProt P11362 142-365)
T1 construct: also called FGFR1c^ΔSLBS
T1 sequence: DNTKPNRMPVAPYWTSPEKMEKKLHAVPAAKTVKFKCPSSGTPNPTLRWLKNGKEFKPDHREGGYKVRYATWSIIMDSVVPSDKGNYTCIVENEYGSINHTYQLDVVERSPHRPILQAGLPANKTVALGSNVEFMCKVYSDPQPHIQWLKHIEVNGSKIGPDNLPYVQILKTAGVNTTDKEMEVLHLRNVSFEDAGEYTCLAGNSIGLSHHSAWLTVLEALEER
Description: (§1) A Superdex 200 10/300 GL column (GE Healthcare, USA) was placed in-line between the HPLC pump (Waters 1525) and the HPLC UV (Waters 2998 Photodiode Array), laser light scattering, and refractive index detectors. Light scattering and refractive index detectors were calibrated following the manufacturer's guidelines. The refractive index increment (dn/dc) in which n is the refractive index and c is the concentration of the mixture of DDM and CHS in 20 mM Tris-HCl pH 8.0 buffer containing 300 mM NaCl, was determined offline using an Optilab T-rEX refractive index detector. Monomeric bovine serum albumin (#23210, Thermo Scientific, USA) was used as part of routine data quality control.
(§2) 60 ml or more of 25 mM HEPES pH 7.5 buffer containing 150 mM NaCl were passed through the system at a flow rate of 0.5 mL/min to equilibrate the Superdex 200 10/300 GL column and establish stable baselines for light scattering and refractive index detectors. Purified αKlotho^ecto, FGER1c^ecto (wild type or mutant), and FGF23 (wild type or mutant) proteins were mixed at a molar ratio of 1:1:1 and concentrated to 12.5 μM. 50 μl of protein samples with a molar equivalent of a heparin hexasaccharide (#H006, Iduron, Manchester, U.K.) were injected onto the gel filtration column, and the column eluent was continuously monitored for 280 nm absorbance, laser light scattering, and refractive index. In a separate set of experiments, 50 μl of 1:1:1 FGF23-FGFR1c^ecto-αKlotho^ecto ternary complex at 12.5 μM concentration was mixed with heparin hexasaccharide at molar ratios of 1:0.25, 1:0.5, 1:1, or 1:2, and the mixtures were injected onto the gel filtration column. 50 μl of ternary complex without added heparin hexasaccharide were run as a control. In yet another set of experiments, αKlotho^ecto (wild type or mutant) and FGER1c^ecto were mixed at a molar ratio of 1:1, and 50 μl of concentrated protein mixtures were injected onto the gel filtration column. 50 μl of concentrated αKlotho^ecto (wild type or mutant) alone were run as a control in these experiments. […]

[2] = target: T2, FGFR1c^ecto/ΔRRBS (FGFR1c^ecto carrying A171D) (human, UniProt P11362 142-365)
T2 construct: also called FGFR1^ΔRRBS
T2 sequence: T1 sequence with A30D, E62I
Description: as §1, §2

[3] = target: T3, FGFR1c^ecto/ΔSLBS′ (FGFR1c^ecto carrying V221D) (human, UniProt P11362 142-365)
T3 construct: also called FGFR1c^ΔSLBS′
T3 sequence: T1 sequence with E62I, V80D
Description: as §1, §2

binding result [1]: binds | binding result [2]: binds | binding result [3]: binds
B1: FGF23^WT (human FGF23 Y25 to S205 with R176Q/R179Q, protease-resistant minimal protein) (ligand)
chain: YPNASPLLGSSWGGLIHLYTATARNSYHLQIHKNGHVDGAPHQTIYSALMIRSEDAGFVVITGVMSRRYLCMDFRGNIFGSHYFDPENCRFQHQTLENGYDVYHSPQYHFLVSLGRAKRAFLPGMNPPPYSQFLSRRNEIPLIHFNTPIPRQHTQSAEDDSERDPLNVLKPRARMTPAPAS
notes: also called wild-type FGF23; minimal FGF23
